Laboratory results: patent publication US12571800B2, “Means and methods for treating angiogenesis-related diseases” (Heidelberg Biotech GmbH, priority 2011, dated 2026)
Like-named read-outs stand apart in the source and are kept apart here.

Experiments:
[1] = in vivo; cited from earlier work
HUVECs = experiment: Immunofluorescence, endothelial cell surface binding; assay type: cell-based, human
Description: HUVECs were incubated with Fc-endostatin and detected with Alexa 488 IgG or human NC-1 (hNC-1) trimer and detected by anti-His tag monoclonal antibody.
1.5 Immunocytochemistry. HUVECs were plated and grown on cover slips. […] The slips were incubated in the blocking buffer (2% BSA PBS) for 30 min. For hFc-endostatin or hFc groups, the slides were incubated with Alexa 488 antihuman IgG for imaging. For hNC-1 or IgG groups, the slides were incubated with mouse anti-His-tag monoclonal antibody, then probed by Alexa 488 anti-mouse IgG. Anti-fibronectin antibody (R&D) was used for secondary staining for all slides and probed by Alexa 594 anti-goat IgG and imaged by confocal-microscopy. DAPI counterstaining of nuclei is shown in blue.
2.3 Binding of oligomeric hFc-endostatin and hNC-1 to HUVECs. Immunoflourescence technique was employed to detect endothelial cell surface binding of oligomeric endostatin and NC-1.

[2] = in vivo, cited from earlier work
Lewis Lung Cancer tumors = experiment: Sequential in-vivo passaging of LLC tumors under Fc-endostatin; parameters: species or system C57/B16 mice
Description: Dimerization of the NC-1 endostatin domains were achieved using IgG-Fc. […] Sequential in-vivo tumor passaging was performed to achieve prolonged and continuous exposure to anti-angiogenic therapy to enrich for the resistant tumor cell population.
Murine Lewis Lung Carcinoma (LLC) tumors were implanted s.c. into C57/B16 mice. Tumors were treated with a murine oligomeric-NC1 fragment, mFc-endostatin, at doses indicated. LLC tumors were exposed in-vivo for a prolonged period to mFc-endostatin by sequential transplantation of tumors (up to four passages, p4) once they evade therapy and reach a size of approximately 1000-2000 mm^3. Control tumors were also sequentially transplanted into new mice without mFc-endostatin treatment. Tumor volume was measured by caliper measurement (FIG. 8). After four passages, both mFc-endostatin resistant as well as control tumors were excised, total RNA was isolated and after QC hybridized on genome-wide microarrays for transcriptional analysis. Microarray data were analyzed using SUMO software package. Quantitative real-time RT-PCR was performed using Taqman technology to confirm the expression of candidate genes identified by microarray analysis.

ASPC-1 xenograft = experiment: Immunofluorescence distribution in ASPC-1 xenograft mice; settings: mouse, in vivo
Text: Immunohistochemistry was used to verify the distribution of Fc-endostatin in ASPC-1 xenograft mice after treatments. (A) The exogenous endostatin was detected by Alexa 488-labeled antibody (green) and vessel marker, CD31 was used and detected by Alexa 594-labeled antibody (red) in tumor, heart and kidney. (B) α-SMA, pericyte marker (red) was used to confirm the endostatin binding to tumor vessels. (C) Exogenous endostatin (green) distribution is similar to fibronectin (red) in tumor. […] (D) Endogenous collagen 18 (green) and fibronectin (red) were detected by polyclonal antibodies against endostatin and fibronectin in non-treated animal tumor. (E) Staining of Fc-endostatin and integrin α5β1. (F) Staining of vW and integrin α5β1. (G) E14.5 mouse brain embryonic sections were used to verify the distribution of fibronectin, VEGF and Fc-endostatin (Bar, 100 μm).
1.6 Immunohistochemistry. Tumors sections were rinsed by cold PBS and fixed with 4% paraformaldehyde for 10 min with before staining. Human Fc-endostatin was detected by Alexa 488 anti-human IgG. Antibodies to collagen 18 (R&D), fibronectin (R&D), integrin α5 (R&D) CD31 (BD Pharmingen, San Jose, CA) and von Willebrand Factor (Dako, Carpinteria, CA), α-SMA (Dako, Carpinteria, CA) were used for staining. The primary antibodies were detected by Alexa 488 or 594-labeled secondary antibodies (Molecular Probes, Eugene, OR). The sections were imaged by confocal-microscopy (model DM IRE2: Leica).
Immunofluorescence (IF) analysis was used to verify the systemic distribution of hFc-endostatin in an ASPC-1 xenograft animal model. […] In addition to CD31 (endothelial cell) staining, the pericyte marker, α-SMA was used to confirm the interaction of endostatin with blood vessels (FIG. 2B). To examine binding of endostatin to fibronectin, hFc-endostatin treated tumor sections of xenograft models were prepared. […] Co-localization of endogenous collagen 18 and endogenous fibronectin has also been detected (FIG. 2D). […] In addition, ex vivo E14.5 mouse brain embryonic sections were used to confirm this phenomenon. […]

B1: Fc-endostatin: human endostatin with the Fc domain at its N-terminus, expressed in NS/0 cells (protein)
chain: HSHRDFQPVLHLVALNSPLSGGMRGIRGADFQCFQQARAVGLAGTFRAFLSSRLQDLYSIVRRADRAAVPIVNLKDELLFPSWEALFSGSEGPLKPGARIFSFDGKDVLRHPTWPQKSVWHGSDPNGRRLTESYCETWRTEAPSATGQASSLLGGRLLGQSAASCHHAYIVLCIENSFMTASK
modifications: left off: a dimerising Fc or GST
notes: human endostatin with the Fc domain at its N-terminus, expressed in NS/0 cells
Question: For B1, which “smaller dose required for the same tumor reduction vs endostatin alone” value [1] is on record?
Answer: Its value is 50-100 fold.

Question: And the “binding to HUVECs” value (HUVECs; cells cultured only for 24 hours)?
Answer: The value was “poor binding”.

Question: What about the “binding to HUVECs” value (HUVECs; incubation time prolonged to 72 hours) of the same molecule?
Answer: The value was “significant binding”.

Question: And the half-life in circulation [2]?
Answer: Its half-life in circulation is “longer half-life than endostatin”.

Question: What about the half-life in circulation ([2]; listed as endostatin fused to the Fc domain of an IgG antibody) of the same molecule?
Answer: Its half-life in circulation is “longer than a week”.

Question: And the “tumor growth, passage 4 (P4)” value (Lewis Lung Cancer tumors; continuous exposure over four passages)?
Answer: Its value is “growing even faster than non-treated control p4 tumors”.

Question: And the “tumor growth, first passage (p1)” value (Lewis Lung Cancer tumors; p1)?
Answer: The value was “strong initial inhibition of tumor growth”.

Question: What about the “co-localization with fibronectin in tumor sections” value (ASPC-1 xenograft) of the same molecule?
Answer: The value was “co-localization with endogenous fibronection”.

Question: What about the “co-localization with integrin α5β1” value (ASPC-1 xenograft) of the same molecule?
Answer: Its value is “co-localized with integrin α5β1”.

Question: What about the “systemic distribution (antibody to Fc)” value (ASPC-1 xenograft) of the same molecule?
Answer: The value was “found not only in tumor but also in heart and kidney endothelial cells”.
